Source: US20160106861A1, “AXL ANTIBODY-DRUG CONJUGATE AND ITS USE FOR THE TREATMENT OF CANCER” (PIERRE FABRE MEDICAMENT, priority 2013, published 2016)
Where a chain is given by its changes, count along the chain named.

Legend:
[1] = target: T1, human Axl receptor on the surface of human tumor cells (human, UniProt P30530 26-894); assay: flow cytometry on human tumor cells
T1 construct: Endogenous Axl on human tumor cell lines (SN12C, Calu-1, MDA-MB435S, MDA-MB231, NCI-H125, Panc1); also called cell-surface Axl; membrane Axl receptor
T1 sequence: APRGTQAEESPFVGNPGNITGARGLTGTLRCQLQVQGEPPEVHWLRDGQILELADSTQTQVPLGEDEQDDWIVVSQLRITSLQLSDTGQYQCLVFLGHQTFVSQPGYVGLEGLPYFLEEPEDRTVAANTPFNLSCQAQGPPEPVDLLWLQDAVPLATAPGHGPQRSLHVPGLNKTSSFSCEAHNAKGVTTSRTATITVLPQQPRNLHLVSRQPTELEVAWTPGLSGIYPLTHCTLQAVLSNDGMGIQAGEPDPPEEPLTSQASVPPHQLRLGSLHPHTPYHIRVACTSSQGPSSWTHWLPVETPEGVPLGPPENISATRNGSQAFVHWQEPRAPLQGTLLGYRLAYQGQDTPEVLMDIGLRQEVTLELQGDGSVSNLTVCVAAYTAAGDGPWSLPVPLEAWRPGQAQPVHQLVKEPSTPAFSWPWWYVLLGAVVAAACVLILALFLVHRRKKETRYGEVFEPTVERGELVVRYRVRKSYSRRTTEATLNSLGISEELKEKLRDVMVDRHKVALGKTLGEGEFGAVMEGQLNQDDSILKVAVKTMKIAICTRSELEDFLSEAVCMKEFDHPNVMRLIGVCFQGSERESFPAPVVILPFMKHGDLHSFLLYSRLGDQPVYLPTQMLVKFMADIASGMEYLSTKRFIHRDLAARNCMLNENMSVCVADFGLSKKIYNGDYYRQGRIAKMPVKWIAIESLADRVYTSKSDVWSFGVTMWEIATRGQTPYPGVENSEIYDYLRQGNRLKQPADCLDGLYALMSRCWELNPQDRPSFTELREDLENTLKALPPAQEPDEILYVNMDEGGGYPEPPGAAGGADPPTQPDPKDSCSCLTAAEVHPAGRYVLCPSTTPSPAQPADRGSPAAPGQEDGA

rhMer-Fc = target: T2, rhMer-Fc (Homo sapiens, UniProt Q12866); assay: ELISA binding on immobilized rhMer-Fc protein; details: starting concentration 5 μg/ml, 1/2 serial dilutions
T2 construct: purchased R and D Systems 891-MR
T2 sequence (Q12866 with tags, fused parts or gaps limits assumed): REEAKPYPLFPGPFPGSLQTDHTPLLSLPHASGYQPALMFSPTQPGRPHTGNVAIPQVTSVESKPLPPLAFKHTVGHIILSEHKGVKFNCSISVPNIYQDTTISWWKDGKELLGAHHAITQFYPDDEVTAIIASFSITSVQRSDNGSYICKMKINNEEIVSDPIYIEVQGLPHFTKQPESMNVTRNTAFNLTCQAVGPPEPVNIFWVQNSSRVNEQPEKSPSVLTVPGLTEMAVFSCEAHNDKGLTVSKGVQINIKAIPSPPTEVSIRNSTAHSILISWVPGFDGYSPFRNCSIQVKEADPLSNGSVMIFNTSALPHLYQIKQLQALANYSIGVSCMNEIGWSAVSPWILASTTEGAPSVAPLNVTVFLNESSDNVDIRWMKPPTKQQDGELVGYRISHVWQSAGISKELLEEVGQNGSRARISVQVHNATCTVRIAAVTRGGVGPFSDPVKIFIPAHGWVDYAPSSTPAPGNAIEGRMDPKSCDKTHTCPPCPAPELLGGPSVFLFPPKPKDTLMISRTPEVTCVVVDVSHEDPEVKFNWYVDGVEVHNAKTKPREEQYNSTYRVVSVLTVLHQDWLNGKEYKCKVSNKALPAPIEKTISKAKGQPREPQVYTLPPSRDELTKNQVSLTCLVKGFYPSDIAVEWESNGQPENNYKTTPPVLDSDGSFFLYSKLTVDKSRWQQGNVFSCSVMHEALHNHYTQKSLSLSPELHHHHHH
Method: (§1) Briefly, the recombinant human Axl-Fc (R and D systems, cat N° 154AL/CF), rhDtk (R and D Systems, cat N° 859-DK) or rhMer-Fc (R and D Systems, cat N° 891-MR) proteins were coated overnight at 4° C. to Immulon II 96-well plates and, after a 1 h blocking step with a 0.5% gelatine solution, 1613F12 was added for an additional 1 h at 37° C. at starting concentration of 5 μg/ml (3.33 10^−8M). Then ½ serial dilutions were done over 12 columns. Plates were washed and a goat anti-mouse (Jackson) specific IgG-HRP was added for 1 h at 37° C. Reaction development was performed using the TMB substrate solution. The isotype control antibody mIgG1 and the commercial anti-Axl Mab 154 antibody were also used in parallel. Coating controls were performed in presence of a goat anti-human IgG Fc polyclonal serum labelled with HRP (Jackson, ref 109-035-098) and/or in presence of a HRP-coupled anti-Histidine antibody (R and D Systems, ref: MAB050H).

[2] = target: T3, recombinant human Axl-Fc (R and D Systems, cat N° 154AL/CF) (human, UniProt P30530 26-451); assay: ELISA on coated rhAxl-Fc
T3 construct: Bought protein; also called rhAxl-Fc; rh Axl-Fc protein; not shown: Fc of human IgG (coating control with anti-human IgG Fc)
T3 sequence: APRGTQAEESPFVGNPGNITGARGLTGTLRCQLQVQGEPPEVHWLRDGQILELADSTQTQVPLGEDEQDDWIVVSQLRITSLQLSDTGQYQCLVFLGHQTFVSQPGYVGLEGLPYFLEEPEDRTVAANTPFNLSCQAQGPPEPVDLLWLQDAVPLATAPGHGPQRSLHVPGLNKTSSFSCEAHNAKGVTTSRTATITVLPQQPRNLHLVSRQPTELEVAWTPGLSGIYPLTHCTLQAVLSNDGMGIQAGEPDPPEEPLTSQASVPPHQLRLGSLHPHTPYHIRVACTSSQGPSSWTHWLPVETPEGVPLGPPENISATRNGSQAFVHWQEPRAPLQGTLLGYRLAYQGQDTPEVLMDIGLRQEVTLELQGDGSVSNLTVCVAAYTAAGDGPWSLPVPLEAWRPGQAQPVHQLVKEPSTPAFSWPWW

rhDtk-Fc = target: T4, rhDtk-Fc (Homo sapiens, UniProt Q06418); assay: ELISA binding on immobilized rhDtk-Fc protein; details: starting concentration 5 μg/ml, 1/2 serial dilutions
T4 construct: purchased R and D Systems 859-DK
T4 sequence (Q06418 with tags, fused parts or gaps limits assumed): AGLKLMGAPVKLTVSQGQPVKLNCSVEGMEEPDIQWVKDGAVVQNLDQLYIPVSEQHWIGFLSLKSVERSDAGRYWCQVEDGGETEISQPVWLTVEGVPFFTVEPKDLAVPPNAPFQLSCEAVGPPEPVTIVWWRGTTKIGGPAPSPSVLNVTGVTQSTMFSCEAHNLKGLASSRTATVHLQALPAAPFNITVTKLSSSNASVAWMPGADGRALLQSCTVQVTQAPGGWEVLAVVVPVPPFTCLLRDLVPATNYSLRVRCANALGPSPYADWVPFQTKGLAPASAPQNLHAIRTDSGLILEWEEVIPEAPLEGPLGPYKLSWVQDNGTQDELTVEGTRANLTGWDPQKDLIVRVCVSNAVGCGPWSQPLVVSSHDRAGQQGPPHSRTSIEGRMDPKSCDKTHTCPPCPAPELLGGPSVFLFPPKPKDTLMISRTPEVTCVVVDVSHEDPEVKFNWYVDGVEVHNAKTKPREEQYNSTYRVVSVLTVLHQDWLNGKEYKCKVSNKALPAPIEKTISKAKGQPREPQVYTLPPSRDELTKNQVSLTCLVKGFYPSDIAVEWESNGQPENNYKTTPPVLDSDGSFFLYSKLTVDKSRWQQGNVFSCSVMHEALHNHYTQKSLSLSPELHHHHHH
Method: as §1

rhAxl-Fc protein = target: T5, rhAxl-Fc protein (Homo sapiens, UniProt P30530); assay: ELISA binding on immobilized rhAxl-Fc protein; details: starting concentration 5 μg/ml, 1/2 serial dilutions
T5 construct: purchased R and D Systems 154AL/CF
T5 sequence (P30530 26-451 limits assumed): T3 sequence with N241D
Method: as §1

[3] = tested on: MCF7 human breast tumor cell line; assay: FACS binding on MCF7 cells
Method: For cell surface binding studies, two fold serial dilutions of a 10 μg/ml (6.66 10^−8 M) primary antibody solution (1613F12, MAB154 or mIgG1 isotype control 9G4 Mab) are prepared and are applied on 2·10^5 cells for 20 min at 4° C. After 3 washes in phosphate-buffered saline (PBS) supplemented with 1% BSA and 0.01% NaN3, cells were incubated with secondary antibody Goat anti-mouse Alexa 488 ( 1/500° dilution) for 20 minutes at 4° C. After 3 additional washes in PBS supplemented with 1% BSA and […], cells were analyzed by FACS (Facscalibur, Becton-Dickinson). At least 5000 cells were assessed to calculate the mean value of fluorescence intensity.
1613F12 dose response curves were prepared. MFIs obtained using the various human tumor cells were then analysed with Prism software.

B1: m1613F12 (murine 1613F12, hybridoma CNCM I-4505) (antibody, V domains shown)
VH: EVHLQQSGAELVKPGASVKLSCTASGFNIRDTYIHWVKQRPEQGLEWIGRLDPANGHTKYGPNFQGRATMTSDTSSNTAYLQLSSLTSEDTAVYYCARGAYYYGSSGLFYFDYWGQGTTLSVSS
VL: DVQITQSPSYLATSPGETITINCRASKSISKYLAWYQEKPGKTNKLLIYSGSTLQSGVPSRFSGSGSGTDFTLTISSLEPEDFAMYFCQQHHEYPLTFGAGTELELK
notes: Murine monoclonal antibody; also called Axl antibody
Q: What does the source list for B1?
A: binding result [1]: binds; binding on rhMer (ELISA) (rhMer-Fc): does not bind; binding result [2]: binds; binding on rhDtk (ELISA) (rhDtk-Fc): does not bind; binding on rhAxl-Fc protein (ELISA) (rhAxl-Fc protein): only binds to the rhAxl-Fc protein; binding of Axl receptor on MCF7 (FACS) [3]: No binding of Axl receptor was observed
